1 molecule from patent publication US20250171549A1 (Amgen, published 2025) can be followed below.

In this experiment the target is T1, cynomolgus monkey CCR8 (comprising threonine at position four) (cynomolgus monkey, UniProt O97665 1-356 (rhesus entry)).
T1 construct: also called Cyno CCR8; cynomolgus CCR8
Description: KinExA, 293T cells expressing cynomolgus CCR8. The method, then: For each equilibrium set, reference point controls included a sample with cell media only and a sample without cells. The equilibrium sets were incubated for 24 hours at room temperature, with shaking. After 24 hours of incubation, the supernatants were separated from the cell pellets via centrifugation at 500×g for five minutes. The supernatants of both high [Ab] and low [Ab] equilibrium sets were then run through a KinExA 3200 machine.
Each equilibrium sample set was read in duplicate on the KinExA machine. For low [Ab] equilibrium samples, 6.8 mL and 4.6 mL of each sample were run in duplicate, respectively, for human and cyno CCR8 equilibrium experiments. For high [Ab] equilibrium samples 16 μL and 75 μL of each sample were run in duplicate, respectively for human and cyno CCR8 equilibrium experiments.
For each equilibrium sample the free [Ab] was detected by running the equilibrium samples through the coated beads followed by a quick wash with the running buffer (1×PBS pH7.4+1% BSA+0.05% Sodium Azide). The secondary detection antibody (goat anti-huIgG (H+L) Alexa 647) was run through the flow cell at 680 ng/ml and 500 μL per run. The KinExA voltage output signal was used in KinExA software to calculate the Kd. […]

T1 sequence (O97665 other isoform, or with tags, fused parts or gaps): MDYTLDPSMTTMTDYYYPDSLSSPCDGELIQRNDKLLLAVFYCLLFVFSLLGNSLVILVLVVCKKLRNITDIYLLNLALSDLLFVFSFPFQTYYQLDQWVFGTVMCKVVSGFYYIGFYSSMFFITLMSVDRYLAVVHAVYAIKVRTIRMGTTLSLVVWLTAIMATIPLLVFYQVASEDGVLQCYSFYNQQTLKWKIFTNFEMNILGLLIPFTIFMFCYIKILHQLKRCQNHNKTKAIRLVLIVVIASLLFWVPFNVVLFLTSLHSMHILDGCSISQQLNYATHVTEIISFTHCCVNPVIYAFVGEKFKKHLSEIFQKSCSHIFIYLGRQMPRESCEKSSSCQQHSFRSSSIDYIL

B1: Antibody 1 IgG2 (antibody)
heavy: EVQLVESGGGLVKPGGSLRLSCAASGFTFSNARMGWVRQAPGKGLEWVGRIKSKTEGGTRDYAAPVKGRFTISRDDSKNTLYLQMNSLKTEDTAVYYCTSYSGVWGQGTMVTVSSASTKGPSVFPLAPCSRSTSESTAALGCLVKDYFPEPVTVSWNSGALTSGVHTFPAVLQSSGLYSLSSVVTVPSSNFGTQTYTCNVDHKPSNTKVDKTVERKCCVECPPCPAPPVAGPSVFLFPPKPKDTLMISRTPEVTCVVVDVSHEDPEVQFNWYVDGVEVHNAKTKPREEQFNSTFRVVSVLTVVHQDWLNGKEYKCKVSNKGLPAPIEKTISKTKGQPREPQVYTLPPSREEMTKNQVSLTCLVKGFYPSDIAVEWESNGQPENNYKTTPPMLDSDGSFFLYSKLTVDKSRWQQGNVFSCSVMHEALHNHYTQKSLSLSPGK
light: not shown
notes: IgG2; tested as hybridoma supernatant
On to B1, for which binding was put at a Kd of 0.229 nM.
